# From article PMC8991601
# Key:
# [1] = system: N[C@@H](CC(=O)O)C(=O)Nc1ccc([N+](=O)[O-])cc1; assay: purified protein; details: 10 mM Tris-HCl, pH 7.5, 50 °C
# [2] = system: N[C@@H](CCC(=O)O)C(=O)Nc1ccc([N+](=O)[O-])cc1; assay: purified protein; details: 10 mM Tris-HCl, pH 7.5, 50 °C
substance,measurement,setting,value
cDNPEP (recombinant chicken aspartyl aminopeptidase) (Gallus gallus),Km,[1],767 µM
same,Km,[2],137 µM
bDNPEP (recombinant bovine aspartyl aminopeptidase) (Bos taurus),Km,[1],389 µM
same,Km,[2],314 µM
